The values that follow come from patent publication US20190367957A1.

Assay [1] concerns the target T1, cytochrome P-450aluC09 (P450 AluC09) from Amycolatopsis lurida NRRL 2430 (Amycolatopsis lurida NRRL 2430).
T1 sequence: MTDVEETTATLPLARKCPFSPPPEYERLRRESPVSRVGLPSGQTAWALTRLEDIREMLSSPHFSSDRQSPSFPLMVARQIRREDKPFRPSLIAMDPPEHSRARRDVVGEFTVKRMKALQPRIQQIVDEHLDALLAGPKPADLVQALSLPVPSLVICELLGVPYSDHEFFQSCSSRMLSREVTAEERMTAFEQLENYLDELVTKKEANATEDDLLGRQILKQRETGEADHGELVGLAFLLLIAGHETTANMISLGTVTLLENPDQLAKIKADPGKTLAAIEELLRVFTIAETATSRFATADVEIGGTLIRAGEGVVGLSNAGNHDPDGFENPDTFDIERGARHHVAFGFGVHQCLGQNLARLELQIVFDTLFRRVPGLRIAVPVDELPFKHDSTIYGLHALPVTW
Kind of assay: cell-based or functional assay.

For assay [2] the target is unchanged. Kind of assay: cell-based or functional assay. The source holds these as a separate data set.

Like-named read-outs stand apart in the source and are kept apart here.

B1: ferredoxin AluF03 from Amycolatopsis lurida NRRL 2430 (protein)
chain: MKIIADTGKCVGAGQCVLTDPDLFDQSEDDGTVLVLNAEPEGEEAEENARTAVHICPGQALSLA
As for B1, the % yield of parent-derived products, HO-bosentan 568 m/z (whole cell biocatalysis) in assay [1] turned out to be 27.4%. In assay [2], the % yield of parent-derived products, 4'-HO-diclofenac 310 m/z (whole cell biocatalysis) is 60.3%; the % yield of parent-derived products, 5-HO-diclofenac 310 m/z (whole cell biocatalysis) amounted to 23.8%; the % yield of parent-derived products, HO-bosentan 568 m/z (whole cell biocatalysis) is 52.6%.

B2: ferredoxin Fd1 from Streptomyces griseus 11796 (protein)
chain: TMRVSADRTVCVGAGLCALTAPGVFDQDDDGIVTVLTAEPAADDDRRTAREAGHLCPSGAVRVVEDTE
For the molecule B2, in assay [2], the % yield of parent-derived products, 4'-HO-diclofenac 310 m/z (whole cell biocatalysis) is 11.5%; the % yield of parent-derived products, 5-HO-diclofenac 310 m/z (whole cell biocatalysis) turned out to be 4.2%; the % yield of parent-derived products, HO-bosentan 568 m/z (whole cell biocatalysis) was 6.3%.

B3: ferredoxin CamB from Pseudomonas putida ATCC 17453 (protein)
chain: SKVVYVSHDGTRRELDVADGVSLMQAAVSNGIYDIVGDCGGSASCATCHVYVNEAFTDKVPAANEREIGMLECVTAELKPNSRLCCQIIMTPELDGIVVDVPDRQW
For B3, the % yield of parent-derived products, HO-bosentan 568 m/z (whole cell biocatalysis) in assay [1] was found to be 21.2%.
